Reference: the supplement of paper PMC9170038

System: MS2 coat protein
Assay: apparent KD of MS2 coat protein; designed switch direction (-1 OFF switch, 1 ON switch): -1; higher = weaker reporter binding
Method in brief: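 The reported apparent KD is a per-design median over clusters, from curve fits of normalised cluster fluorescence. Protein titrations used SNAP-549-labelled MS2 coat protein, doubled from 0.7 or 1.5 nM to 3 µM, in Tris-HCl pH 7.5 buffer with KCl, MgCl2, BSA, DTT, tRNA and Tween-20, with no input, 200 uM small-molecule ligand, or an oligonucleotide input. The RNA switches were transcribed on Illumina chips by stalled E. coli RNA polymerase.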

[1] = Eterna round: R95, input ligand: FMN 200 uM
[2] = Eterna round: R95, input ligand: microRNA oligo, concentration not stated
[3] = Eterna round: R95, input ligand: none
[4] = input ligand: microRNA oligo, concentration not stated

Sequence | apparent KD of MS2 coat protein (input ligand: FMN 200 uM) | apparent KD of MS2 coat protein (input ligand: none) | apparent KD of MS2 coat protein [1] | apparent KD of MS2 coat protein [2] | apparent KD of MS2 coat protein [3] | apparent KD of MS2 coat protein [4]
GGAAAAAUAUAGGAUAUGGGAGGGAGGACCGAACCAGAAGGAUAGACAUGAGGAUCACCCAUGUAAAGAUCCUC [AK-MS2ROC-r4-exclusion6-6] (Eterna round: R97, puzzle: Exclusion 6) | 377 nM | 204 nM |  |  |  | 
GGAAAACAUGAGGAUCACCCAUGUGAGGAUAUGCGUACGUUGUCCGUAGGCGACGUGCGCAGAAGGCGCAAGAG [Mat - Mod of JL D89] (puzzle: Exclusion 1) |  |  | 57.4 nM | 48.5 nM | 58.1 nM | 
GGAACGCGAGGAUAUACAUAGCCGGAAACGGCAAUAGCCUCACAUGAGGAUCACCCAUGUAGAAGGCGCGGAGA [AK-MS2ROC-r4-exclusion2-24] (Eterna round: R97, puzzle: Exclusion 2) | 119 nM | 17.2 nM |  |  |  | 
GGAAGAAAGCGAGGAUAUCGAUAAGAAGAAGAAGAUAAGGUGACAUGAGGAUCACCCAUGUAAUACGAGAAGGCGCGACCUGCG [i'd better go back to my homework] (Eterna round: R96, puzzle: Exclusion NG 2) | 215 nM | 197 nM |  |  |  | 147 nM
GGACAUAAAGUCAGGAUAUUAAUGCGAACAAGCGAUGAGAAGGGACAUGAGGAUCACCCAUGUGAUUCUCAUCA [Edvebe] (Eterna round: R97, puzzle: Brourd's mod of Exclusion 4) | 17.6 nM | 16.5 nM |  |  |  | 
GGAGAGUCAGGAUAUCGAAGGUAGUGGAGAGGAGUGUGGUACGAGAAGGGACAUGAGGAUCACCCAUGUAGGUG [JR_Exclusion4)Sub010] (puzzle: Exclusion 4) |  |  | 306 nM | 423 nM | 478 nM | 
GGAGGAAGAGAGGAUAUGGAGGAGAGGAGAAGACCAGAAGGUUCAACAUGAGGAUCACCCAUGUAUGAUCCUCA [AK-MS2ROC-r4-exclusion6-1.1] (Eterna round: R97, puzzle: Exclusion 6) | 789 nM | 694 nM |  |  |  | 
GGAGGACGAGCAGGAUAUUUUUACAUGAGGAUCACCCAUGUGUAAUCAGGGUAAUCCUCCGCCGAAAAGAAGGGUUCGGAAGAA [Mat - Exclusion NG 2 - Mod of JL - D83] (Eterna round: R96, puzzle: Exclusion NG 2) | 2750 nM | 67.6 nM |  |  |  | 16.9 nM
GGAUAAAACUGAGGAUAUGCGUAUAGAUAGAGAGCAGAAGGCAGACAUGAGGAUCACCCAUGUGAGUUCUCGAUAAGAAACACG [Prohibition 58 - Jieux - Exclusion NG 1] (Eterna round: R96, puzzle: Exclusion NG 1) | 118 nM | 35.2 nM |  |  |  | 36.1 nM
GGAUAGUGAGGAUAUACCCAGAUUGAUGGACACGUCAGCGGGUAGAAGGCACAUGAGGAUCACCCAUGUGGCCU [Eternabot (L1) Solution 22] (Eterna round: R97, puzzle: Exclusion 4) | 18.4 nM | 14.1 nM |  |  |  | 
GGAUCGAAUGUGAGGAUAUACCACUGGAUACAGUGGUAGAAGGCACAUGAGGAUCACCCAUGUCUCUACGAUCC [Fiskers BMX 4 - 43] (puzzle: Brourd's mod of Exclusion 4) |  |  |  | 21 nM |  | 
GGAUCGAAUGUGAGGAUAUGCAGGUCCUUGGAUCUGCAGAAGGCACAUGAGGAUCACCCAUGUGAUACCGAUCC [Mat - Exclusion 4 - Eli Mod - D42] (Eterna round: R97, puzzle: Brourd's mod of Exclusion 4) | 148 nM | 455 nM |  |  |  | 
GGAUCGAGUGUGAGGAUAUACCUAUGGAAACAUAGGUAGAAGGCACAUGAGGAUCACCCAUGUGUUCCCGGUCC [Mat - Exclusion 4 - Eli Mod - D16] (Eterna round: R97, puzzle: Brourd's mod of Exclusion 4) | 485 nM | 50.8 nM |  |  |  | 
GGAUCGAGUGUGAGGAUAUACCUAUGGAUACAUAGGUAGAAGGCACAUGAGGAUCACCCAUGUUCCAACGGUCC [Eli bmx4 4.11] (Eterna round: R97, puzzle: Brourd's mod of Exclusion 4) | 817 nM | 108 nM |  |  |  | 
GGAUCUUGGGUCAGGAUAUGCUGAUAUUUUUGUCAGCAGAAGGGACAUGAGGAUCACCCAUGUGCUUGGUUUUG [Magic-16] (puzzle: Brourd's mod of Exclusion 4) |  |  |  | 12.6 nM |  | 
GGAUGGCGAGGAUAUACAUGAGGAUCACCCAUGUGAGAGAAAUAAGUGAGGAAGAAAAGUAGAAGGCGCAGACG [Mat - Exclusion 3 - Mod of Salish D45] (puzzle: Exclusion 3) |  |  | 11.1 nM | 55.7 nM | 53.1 nM | 
GGAUUACAUGAGGAUCACCCAUGUCAGGAUAUACGAUCAUAUGCCGAAAGGCAUAUGAGUAGAAGGGACAAUAU [AK-MS2ROC-r4-exclusion1-2.0] (Eterna round: R97, puzzle: Exclusion 1) | 46.2 nM | 36.1 nM |  |  |  | 

Sequence | apparent KD of MS2 coat protein (input ligand: FMN 200 uM) | apparent KD of MS2 coat protein (input ligand: none) | apparent KD of MS2 coat protein [1] | apparent KD of MS2 coat protein [2] | apparent KD of MS2 coat protein [3] | apparent KD of MS2 coat protein [4]
GGAUUCCAGUGAGGAUAUCCAAAUAAAAGCCAUGGAGAAGGCACAUGAGGAUCACCCAUGUAGGGCAAUAGCAGCGACCACUGC [Raqube] (Eterna round: R96, puzzle: Exclusion NG 1) | 59.4 nM | 29.3 nM |  |  |  | 27.6 nM
GGCACACAUGAGGAUCACCCAUGUCAGGAUAUGUGGCGAUCGUCGAAAGACGAUAGCCACAGAAGGGACAGGCC [Eli x1 4.25] (Eterna round: R97, puzzle: Exclusion 1) | 68.7 nM | 49.8 nM |  |  |  | 
GGCACACAUGAGGAUCACCCAUGUGAGGAUAUGAGGCGAUCGUCGAAAGACGAUAGCCUCAGAAGGCACAUGCC [Eli x1 4.10] (Eterna round: R97, puzzle: Exclusion 1) | 42.9 nM | 16 nM |  |  |  | 
GGCACACAUGUAGGAUAUCUGCACGUGUAGUGCAGAGAAGGACAUGAGGAUCACCCAUGUAAUUAAGAUCAAUUAUUAAGUGCC [ENG1/3-A3] (Eterna round: R96, puzzle: Exclusion NG 1) | 481 nM | 58.9 nM |  |  |  | 48.6 nM
GGCAUGUAAGGAUAUGCCACUGAGUGCUUUGCGCUCAGGAAGCAGAAGGUACAUGAGGAUCACCCAUGUGAUAA [jl-ex4-4.52 ViennaUCT mod] (Eterna round: R97, puzzle: Exclusion 4) | 109 nM | 714 nM |  |  |  | 
GGCCCGCGCGGGCCCGGGCCCGGGACAUGAGGAUCACCCAUGUAGGAUAUCCGGCCCGCCGGGCCGGAGAAGGACAUGGGCCCG [-48.9, -45.2 kcal, 17% A] (Eterna round: R96, puzzle: Exclusion NG 3) | 34.1 nM | 16.9 nM |  |  |  | 11.1 nM
GGCCCUAAGGUCAGAUCCACAAGCUUUUUGCUCGUUUUAACAUGAGGAUCACCCAUGUCUAGUGGAUUUGAUCCUCU [Sensor v3, turn-off variant 2 (MOD of Indiso v.8)] (puzzle: Sensor v3, turn-off variant 2) |  |  | 27.9 nM | 9.69 nM | 33.5 nM | 
GGCCGAGAACAGCUCCACGCUACCCUCGGCCGCUCAUUUACAUGAGGAUCACCCAUGUUUUUUGCUUGUCUUGUUUC [Xeisrarabi] (puzzle: Sensor v3, turn-off variant 2) |  |  | 22.1 nM | 94.1 nM | 24.1 nM | 
GGCCUGUUAGGAUAUUAGUAGUAGUCAGAAAAGACUAUUACUGAGAAGGAACAUGAGGAUCACCCAUGUUGGCC [Mat - Exclusion 4 - Eli Mod - D39] (Eterna round: R97, puzzle: Exclusion 4) | 17.2 nM | 17.4 nM |  |  |  | 
GGCGACCACCUCGUGCACUACAUGAGGAUCACCCAUGUUUUUCGCUCGUCUUAUGCGCCAACCUCCCAAACACUAAG [Gelaesxe] (puzzle: Sensor v3, turn-off variant 1) |  |  | 34.6 nM | 103 nM | 35.4 nM | 
GGCGGUGCAGGAUAUUGAAAACUACACAUGAGGAUCACCCAUGUUCCUCACCGGUACAAGCAAGAAGGGCGGUGCA [Erxegetiis] (puzzle: Exclusion 5) |  |  | 18.9 nM | 19.4 nM | 18.3 nM | 
GGCGUGUAUUAGGAUAUUGGAGGGAGGGAGGGCUAAGAAGGAGUAACAUGAGGAUCACCCAUGUAGAGGAAGGG [RHig 2] (Eterna round: R97, puzzle: Exclusion 6) | 63.1 nM | 95.3 nM |  |  |  | 
GGGAAGAACCAACAAGCAAACAUGAGGAUCACCCAUGUAGUAAGAGAAAUUGAGGUGAUUCAGAGAGCUCGACUUAU [AK-miRNA-r3-7.1] (Eterna round: R97, puzzle: Sensor, turn-off variant 1) | 367 nM | 359 nM |  |  |  | 
GGGAAGAACCAACAAGUUAACAUGAGGAUCACCCAUGUUGACUUCAUGUGCACGCAAAGCGUGCAAGCUCGUCUUAU [AK-miRNA-r3-15] (Eterna round: R97, puzzle: Sensor, turn-off variant 1) | 17.9 nM | 17.2 nM |  |  |  | 
GGGACACAUGAGGAUCACCCAUGUGAGGAUAUGUUAGUUUCGGCCAAAGCCGAAAUUAACAGAAGGCACAUACC [JR_Exclusion1_Sub020] (puzzle: Exclusion 1) |  |  |  | 35.7 nM |  | 
GGGAUGUCAGGAUAUACAUGAGGAUCACCCAUGUAGAGAUAAGAUAGGGAAAGAGUAGGUAGAAGGGACGAGAG [JR_Exclu3_Sub044] (puzzle: Exclusion 3) |  |  | 22 nM | 19.9 nM | 24.5 nM | 
